Results on one molecule are retold here after patent publication US20140341843A1 (ELEVEN BIOTHERAPEUTICS, published 2014).

The assay deals with T1, soluble recombinant human IL-1RI (corresponding to the extracellular domain of IL-1RI) (human, UniProt P14778 18-336).
T1 construct: extracellular domain; also called interleukin-1 receptor I; IL-1R1 receptor
T1 sequence (looked up): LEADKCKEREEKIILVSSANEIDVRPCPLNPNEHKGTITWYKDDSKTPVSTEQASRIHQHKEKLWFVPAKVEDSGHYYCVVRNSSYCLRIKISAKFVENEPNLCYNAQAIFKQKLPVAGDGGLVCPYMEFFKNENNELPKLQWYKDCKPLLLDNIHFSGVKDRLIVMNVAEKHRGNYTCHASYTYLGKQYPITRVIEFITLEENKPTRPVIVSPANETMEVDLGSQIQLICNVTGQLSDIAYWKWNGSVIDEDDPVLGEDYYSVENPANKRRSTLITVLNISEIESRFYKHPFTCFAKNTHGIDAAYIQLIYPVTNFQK
Briefly: Kd to the IL-1R1 receptor as listed in Table 15; method not restated, values are the SPR values of Table 7 rounded.

B1: P02 (designed binder)
chain: APVRSLAFRIWDVNQKTFYLRNNQLVAGYLQGPNVNLEEKIDVSFVQGEESNDKIPVALGIHGGKMCLSCVKSGDETRLQLEAVDPKNYPKKKMEKRFVFNKIEINNKLSFESAACPGWFLCTAMEADQPVSLTNMPDEGVMVTKFYMQFVSS
notes: IL-1β/IL-1Ra chimera expressed in E. coli; also called P02 domain; chimeric cytokine domain P02
Regarding B1, the Kd was determined as 0.64 nM.

The term Kd denotes the constant that tells how readily two partners part at equilibrium.
